Target: T1, recombinant E. coli human IL4 (non-glycosylated) (human, UniProt P05112 25-153)
T1 sequence (looked up): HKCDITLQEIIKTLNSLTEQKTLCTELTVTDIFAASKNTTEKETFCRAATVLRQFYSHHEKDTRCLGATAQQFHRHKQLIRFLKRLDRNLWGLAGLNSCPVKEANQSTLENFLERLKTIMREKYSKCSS
Assay: cell-based or functional assay

B cell proliferation (3H thymidine), IC50: 0.047 nM
B1: humanized 3B9 (IgG1) (antibody, V domains shown)
VH: QVTLRESGPALVKPTQTLTLTCTFSGFSLSTSGMGVSWIRQPPGKGLEWLAHIYWDDDKRYNPSLKSRLTISKDTSRNQVVLTMTNMDPVDTATYYCARRETVFYWYFDVWGRGTPVTVSS
VL: IVMTQSPDSLAVSLGERATINCKASQSVDYDGDSYMNWYQQKPGQPPKLLIYAASNLESGVPDRFSGSGSGTDFTLTISSLQAEDVAVYYCQQSNEDPPRFGGGTKVEIKR

Reference: US20020193575A1 (published 2002)
